Measured values published in PMC6625990, “Structural underpinnings of Ric8A function as a G-protein α-subunit chaperone and guanine-nucleotide exchange factor” (Nature Communications, 2019).
Residue numbers refer to the chain shown, from its start. Names may count otherwise. Like-named read-outs stand apart in the source and are kept apart here. Each block holds one molecule with its values, some of them ahead of it.

Columns and labels:
Gαt333–350 = assay: BLI: Ric8A1–492 and its mutants binding to biotinylated Gαt333–350; conditions: for Kd: BLI steady state, source data
Description: (§1) An Octet RED96 system and streptavidin (SA)-coated biosensors (FortéBio, Menlo Park, CA) were used to measure association and dissociation kinetics for Gα peptides or the full-length Avi-tagged Gαt in relation to Ric8A1–492, Ric8A1–452, and Ric8A1–426. To obtain the Avi-tagged Gαt, Gαt was cloned into modified pET21a vector with the N-terminal His6-tag followed by the Avi tag and TEV cleavage site[59]. The Avi-tagged I340Q/N343H mutant of Gαt was prepared by QuikChange protocol. BL21(DE3) cells for expression of the Avi-tagged Gαt were grown in 2TY media supplemented with biotin (10 mg/liter), induced at OD600 of 0.6 with 50 µM IPTG and further grown overnight at 16 °C. Binding studies were performed in 20 mM Tris, 150 mM KCl, 5% glycerol, 1 mM TCEP, 0.5 mg/ml BSA, pH 8.0. All steps were performed at 26 °C, with biosensors stirred into 0.2 ml of sample in each well at 1000 rpm, and at a data acquisition rate of 5.0 Hz. N-terminally biotinylated Gαt333–350, Gαs363–380, C1 peptide and C2 peptide were loaded onto SA sensors at a concentration of 0.05, 0.05, 0.005, and 0.01 mg/ml for 40–90 seconds. Data for association and dissociation phases of the assay were collected as shown in Fig. 1b and Supplementary Figs. 8, 11, 12, and 14. To correct for baseline drift and non-specific binding, reference sensors lacking bound Gα peptide were used in the BLI assays with Ric8A proteins at the highest concentrations. Kinetic data fitting was performed using FortéBio Data Analysis software 10.0. For each concentration of Ric8A1–492, dissociation rate constant (kd) values were calculated from the corresponding dissociation phases of the curves. These kd values were used to calculate the association rate constant (ka) values from the association phases for each concentration according to the equation1 ka=kobserved-kd∕Ric8A1-492 The average ka and kd were calculated as means of the individual ka and kd values for all curves. Equilibrium dissociation constant KD was calculated as mean kd/mean ka. Steady-state data fitting was performed using the GraphPad Prism 7 software with the equation for one site specific binding.

Gαt [1] = assay: BLI: Ric8A1–492 and its mutants binding to full-length Avi-tagged Gαt; conditions: BLI steady state, source data
Description: as §1

Gαi = assay: GTPγS binding to Gαi (GDP/GTPγS exchange, GEF activity of Ric8A constructs); type: biochemical; conditions: for Rate of GDP/GTPγS exchange reaction on Gαi: same conditions
Description: The rates of GTPγS binding to Gαi in the absence or presence of Ric8A1–492 (Ric8A1–452) were measured by following the increase in fluorescence of Gαi tryptophan. Gαi (1 µM) was mixed with GDP (1 µM) in a fluorescence cuvette, in 20 mM Tris-HCl (pH 8.0) buffer containing 150 mM NaCl, 5% glycerol, 1 mM TCEP and 10 mM MgCl2, and incubated for 2 min. The binding reaction was initiated by addition of Ric8A1–492 or Ric8A1–452 (1 µM each) and/or and GTPγs (10 µM). Fluorescence at 340 nm was monitored with the excitation set at 295 nm. Data were fit to an equation for one phase association using the GraphPad Prism 7.05 software.

[2] = DSF thermostability of Ric8A constructs and Ric8A1–492 mutants (protein alone); type: physicochemical, bovine; conditions: DSF; for mean Tm / Tm (C ): protein alone, source data; for mean Tm: mean of replicates
Description: Stabilities of Ric8A constructs with and without peptide ligands were assessed using differential scanning fluorimetry (DSF), in which an increase in fluorescence of the Sypro Orange dye is measured. Ric8A1–492, Ric8A1–452 and Ric8A1–426 in 20 mM Tris-HCl (pH 7.5) buffer containing 150 mM KCl, 5% glycerol, and 1 mM TCEP with and without peptide were used at a final concentration of 0.5 mg/ml and were supplemented with a 1000-fold dilution of Sypro Orange dye (Invitrogen). Temperature was increased at 1 °C/minute and fluorescence signals were recorded using real-time PCR (C1000 Touch thermal cycler, Bio Rad), with the cycler set to FRET mode and the excitation wavelength set at 450–490 nm and the emission wavelength at 560–580 nm.

Gαt [3] = assay: SEC co-migration of Ric8A1–492 R75M mutant with full-length Gαt; type: binding
Description: Ric8A1–492/miniGαi complex was prepared by mixing Ric8A with miniGαi at a 1:1.5 molar ratio. The complex was purified by SEC using a HiLoad 16/600 Superdex 200 pg column equilibrated with 20 mM Tris-HCl (pH 8.0) buffer containing 150 mM KCl, 5% glycerol, and 1 mM TCEP. This procedure removed excess miniGαi, ensuring 1:1 stoichiometry of the complex. Ric8A1–492/Gαt complexes were purified by mixing Ric8A1–492 with Gαt (1:1.5 molar ratio), followed by SEC using Superdex 200 10/300 GL column (GE healthcare) to remove excess Gαt. […]
with Gαt. (A) Ric8A1-492 was mixed with Gαt and loaded onto a MW-calibrated Superdex 200 10/300 column. SEC profile - black curve. Blue curve and a gel in the inset with a blue outline represent SEC profile of Ric8A1-492 alone. Red curve and a gel in the inset with a red outline represent SEC profile of Gαt alone. (B) Peak fractions in A analyzed by SDS-PAGE. Peak 1 containing the Ric8A1-492/Gαt complex is not fully resolved from peak 2 corresponding to Ric8A1-492 alone. (C) The R75M mutant of Ric8A1-492 was mixed with Gαt and loaded onto a MW-calibrated Superdex 200 16/600 column. SEC profile - black curve. Blue line and a gel in inset represent SEC profile of R75M alone. Red curve – SEC profile of Gαt alone. (D) Peak fractions in C analyzed by SDS-PAGE. […]

Kd (Gαt333–350; experiment 1, read-out: KD (uM), Gαt333-350): 0.27 µM | Kd (Gαt333–350; experiment 2, read-out: KD (uM), Gαt333-350): 0.33 µM | Kd (Gαt333–350; experiment 3, read-out: KD (uM), Gαt333-350): 0.33 µM | Kd (Gαt333–350; experiment 4, read-out: KD (uM), Gαt333-350): 0.19 µM | Kd (Gαt333–350; mean of replicates, read-out: Mean KD, Gαt333-350): 0.28 µM | Kd (Gαt333–350; representative experiment, read-out: KD, steady-state curve of Figure 1c): 0.27 µM | Kd (Gαt [1]; experiment 1, read-out: KD (nM), Gαt): 22.6 nM | Kd (Gαt [1]; experiment 2, read-out: KD (nM), Gαt): 27 nM | Kd (Gαt [1]; experiment 3, read-out: KD (nM), Gαt): 23.1 nM | Kd (Gαt [1]; mean of replicates, read-out: mean KD, Gαt): 24.2 nM | Rate of GDP/GTPγS exchange reaction on Gαi, mean (Gαi; Gαi 1 µM, GDP 1 µM, Ric8A construct 1 µM, GTPγS 10 µM, 20 mM Tris-HCl pH 8.0, 150 mM NaCl, 5% glycerol, 1 mM TCEP, 10 mM MgCl2, tryptophan fluorescence ex 295 nm, em 340 nm, one phase association fit, mean): 0.3229 | Rate of GDP/GTPγS exchange reaction on Gαi (Gαi; replicate 1): 0.2658 | Rate of GDP/GTPγS exchange reaction on Gαi (Gαi; replicate 2): 0.38
B1: Ric8A1–492: bovine Ric8A construct truncated at the C-terminus (residues 1–492) (protein)
chain: MEPRAVADALETGEEDVVMEALRAYNRENSQSFTFDDAQQEDRKRLAKLLVSVLEQGLPPSRRVIWLQSIRILSRDRSCLDSFTSRRSLQALACYAGISASQGSVPEPLNMDVVLESLKCLCNLVLSSPVAQALAAEAGLVVRLAERVGLCRQSSFPHDVQFFDLRLLFLLTALRTDVRQQLFQELQGVRLLTRALELTLGMTEGERHPELLPPQETERAMEILKVLFNITFDSIKREVDEEDAALYRHLGTLLRHCVMLAAAGDRTEELHGHAVNLLGNLPVKCLDVLLTLEPHEGSLEFLGVNMDVIRVLLSFMEKRLHQTHRLKESVAPVLSVLTECARMHRPARKFLKAQVLPPLRDVRTRPEVGELLRNKLVRLMTHLDTDVKRVAAEFLFVLCSESVPRFIKYTGYGNAAGLLAARGLMAGGRPEGQYSEDEDTDTDEYKEAKASINPVTGRVEEKPPNPMEGMTEEQKEHEAMKLVNMFDKLSRH
modifications: left off: His6, N-terminal, state not stated
Tm ([2]; Sypro Orange, protein alone 0.5 mg/ml, 20 mM Tris-HCl pH 7.5, 150 mM KCl, 5% glycerol, 1 mM TCEP, 1 °C/minute, mean ± SD (n = 3)): 46.8 ± 0.2 °C | mean Tm [2]: 46.8 C | Tm (C ) ([2]; replicate 1): 46.9 C | Tm (C ) ([2]; replicate 2): 46.96 C | Tm (C ) ([2]; replicate 3): 46.7 C

binding to Gαt333–350 (in words) (Gαt333–350; BLI): ablated the binding
B2: R75M: R75M mutant of Ric8A1–492 (protein, UniProt Q5E9J8 1-492, looked up, variant R75M)
chain: B1 chain with R75M
modifications: residues 1-492
interaction with full-length Gαt (in words) (Gαt [3]): disruption of the interaction | mean Tm [2]: 45.9 C | Tm (C ) ([2]; replicate 1): 45.86 C | Tm (C ) ([2]; replicate 2): 45.81 C | Tm (C ) ([2]; replicate 3): 45.88 C | Tm (C ) ([2]; replicate 4): 45.96 C
